Data published in article PMC10182041 (2023).
Where no end group is shown, it is not given here.

Assays:
[1] = target: T1, Msi3, the sole Hsp110 of Candida albicans (Candida albicans, UniProt Q96VB9 1-701); assay: FP
T1 chain: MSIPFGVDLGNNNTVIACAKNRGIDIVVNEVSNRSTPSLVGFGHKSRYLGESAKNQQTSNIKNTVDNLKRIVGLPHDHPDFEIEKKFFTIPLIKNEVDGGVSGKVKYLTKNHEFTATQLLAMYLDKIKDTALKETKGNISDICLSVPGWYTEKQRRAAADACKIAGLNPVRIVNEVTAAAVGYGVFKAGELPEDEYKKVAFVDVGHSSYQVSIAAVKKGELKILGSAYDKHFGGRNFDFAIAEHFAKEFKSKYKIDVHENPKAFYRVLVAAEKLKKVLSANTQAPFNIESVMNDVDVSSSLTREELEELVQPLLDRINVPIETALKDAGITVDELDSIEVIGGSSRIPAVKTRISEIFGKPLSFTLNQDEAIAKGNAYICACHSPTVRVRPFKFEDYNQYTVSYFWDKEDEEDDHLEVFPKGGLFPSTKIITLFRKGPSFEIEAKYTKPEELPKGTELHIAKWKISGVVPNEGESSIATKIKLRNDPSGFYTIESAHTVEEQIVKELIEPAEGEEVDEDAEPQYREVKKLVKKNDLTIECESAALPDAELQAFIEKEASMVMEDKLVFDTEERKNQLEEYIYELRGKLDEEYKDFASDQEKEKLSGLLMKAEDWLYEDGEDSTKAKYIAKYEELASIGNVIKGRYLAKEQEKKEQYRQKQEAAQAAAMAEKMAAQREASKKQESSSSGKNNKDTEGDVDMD

[2] = target: T1, Msi3, the sole Hsp110 of Candida …; assay: FP; +2H (100 µM)

B1: TRP2-181 peptide labeled with a fluorescein at the N-terminus (peptide)
chain: fluorescein-VYDFFVWL
Kd [1]: 650 nM
Kd [2]: 5.45 µM
